Experimental data from PMC2646901.

Tests used:
[1] = target: human C5a receptor (C5aR) (human) (UniProt P21730); assay: flow cytometry on cells; kinetics: 300 nM FITC-CHIPS(28-149) added to C5aR-transfected RBL cells, dissociation started with 14 μM unlabelled CHIPS(28-149); Kd from kobs and koff, five experiments
[2] = target: formyl peptide receptor (FPR) (UniProt P21462)
[3] = target: human C5a receptor (C5aR) (human) (UniProt P21730); assay: flow cytometry on cells; competition: RBL cells transfected with human C5aR pre-treated with unlabelled CHIPS or human C5a, then 210 nM FITC-rCHIPS(28-149); cell-associated fluorescence
[4] = target: C5a-like receptor 2 (C5L2), the second C5a receptor (UniProt Q9P296); assay: flow cytometry on cells; inhibition of ligand binding: transfected cells co-incubated with rCHIPS(28-149) and His6-C5a (50 nM), His6-C5a des Arg (50 nM) or FITC-formyl peptide (500 nM); 30 min at 4 °C in PBS + 0.1% BSA, 0.2% NaN3; His6 ligands detected with anti-RGSHis6 and anti-mouse IgG-FITC
[5] = target: human C5a receptor (C5aR) (human) (UniProt P21730); assay: as above
[6] = target: human C5a receptor (C5aR) (human) (UniProt P21730)

human C5a receptor (C5aR) (human), sequence (P21730 whole entry): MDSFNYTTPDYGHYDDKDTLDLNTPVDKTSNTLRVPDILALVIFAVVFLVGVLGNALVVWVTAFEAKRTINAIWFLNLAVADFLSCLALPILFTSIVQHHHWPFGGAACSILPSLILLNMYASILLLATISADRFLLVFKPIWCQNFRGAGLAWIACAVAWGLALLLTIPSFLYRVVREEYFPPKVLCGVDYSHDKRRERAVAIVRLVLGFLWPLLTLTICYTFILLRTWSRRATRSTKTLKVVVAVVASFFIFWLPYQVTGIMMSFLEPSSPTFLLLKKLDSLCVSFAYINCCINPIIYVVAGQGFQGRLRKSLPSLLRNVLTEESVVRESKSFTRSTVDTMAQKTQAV
formyl peptide receptor (FPR), sequence (P21462 whole entry): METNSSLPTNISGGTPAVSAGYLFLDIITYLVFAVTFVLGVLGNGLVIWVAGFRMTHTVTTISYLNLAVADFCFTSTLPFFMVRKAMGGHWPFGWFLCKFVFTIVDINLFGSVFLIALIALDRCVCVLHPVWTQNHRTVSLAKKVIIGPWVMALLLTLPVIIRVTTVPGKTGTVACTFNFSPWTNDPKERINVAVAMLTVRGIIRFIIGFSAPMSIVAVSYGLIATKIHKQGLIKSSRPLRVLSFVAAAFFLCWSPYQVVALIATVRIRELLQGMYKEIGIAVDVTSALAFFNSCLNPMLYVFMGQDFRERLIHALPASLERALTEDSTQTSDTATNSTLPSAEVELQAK
C5a-like receptor 2 (C5L2), the second C5a receptor, sequence (Q9P296 whole entry): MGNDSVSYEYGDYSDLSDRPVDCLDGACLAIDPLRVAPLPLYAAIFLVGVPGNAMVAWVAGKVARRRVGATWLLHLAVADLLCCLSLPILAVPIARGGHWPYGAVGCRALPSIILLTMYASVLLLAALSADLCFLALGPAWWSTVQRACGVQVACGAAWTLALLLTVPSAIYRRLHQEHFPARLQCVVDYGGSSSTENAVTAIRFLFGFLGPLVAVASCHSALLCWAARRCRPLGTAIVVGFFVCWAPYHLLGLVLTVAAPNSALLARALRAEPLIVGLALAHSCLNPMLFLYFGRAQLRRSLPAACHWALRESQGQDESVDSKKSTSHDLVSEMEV

## FITC-labelled recombinant CHIPS_(28–149) (from UniProt A6QIG7 28-149) (domain or fragment)
[1]
  t1/2 of association: 0.17 min
  t1/2 of dissociation: 0.73 min

## rCHIPS_(30–141) (from UniProt A6QIG7 30-141) (domain or fragment)
[2]
  inhibition of FPR activation by formyl peptide on RBL cells (Schild plot); potency relative to rCHIPS(28-149): 12 fold

## recombinant chemotaxis inhibitory protein of Staphylococcus aureus, residues 28-149 (rCHIPS_(28–149)) (from UniProt A6QIG7 28-149) (domain or fragment)
[3]
  IC50: 69 nM
[4]
  IC50: 274 nM
[5]
  IC50: 6.7 nM
[6]
  inhibition of C5a-induced activation of C5aR on RBL cells (secretion of β-hexosaminidase); blocks C5a + C5aR: 2.44 µM
[2]
  inhibition of formyl peptide-induced activation of FPR on RBL cells (secretion of β-hexosaminidase): > 1 mM
